Non-standard residues stand in square brackets, D forms with d. Residues, ends and D or L forms follow the SMILES beside them.
Assays:
mMC4R = mMC4R (Mus musculus, UniProt P56450); assay: AlphaScreen cAMP assay, agonist activity; conditions: up to 100 μM concentrations
mMC1R = mMC1R (Mus musculus, UniProt Q01727); assay: AlphaScreen cAMP assay, agonist activity; conditions: up to 100 μM concentrations
mMC5R [1] = target: T1, mMC5R (Mus musculus, UniProt P41149); assay: cell-based
mMC3R = mMC3R (Mus musculus, UniProt P33033); assay: AlphaScreen cAMP assay, agonist activity; conditions: up to 100 μM concentrations
mMC5R [2] = target: T1, mMC5R
[3] = target: mouse melanocortin-3 receptor (mouse) (UniProt P33033)
[4] = target: mouse melanocortin-4 receptor (mouse) (UniProt P56450)
[5] = target: mouse melanocortin-1 receptor (mouse) (UniProt Q01727)
Chain of mouse melanocortin-1 receptor (mouse) (Q01727 whole entry): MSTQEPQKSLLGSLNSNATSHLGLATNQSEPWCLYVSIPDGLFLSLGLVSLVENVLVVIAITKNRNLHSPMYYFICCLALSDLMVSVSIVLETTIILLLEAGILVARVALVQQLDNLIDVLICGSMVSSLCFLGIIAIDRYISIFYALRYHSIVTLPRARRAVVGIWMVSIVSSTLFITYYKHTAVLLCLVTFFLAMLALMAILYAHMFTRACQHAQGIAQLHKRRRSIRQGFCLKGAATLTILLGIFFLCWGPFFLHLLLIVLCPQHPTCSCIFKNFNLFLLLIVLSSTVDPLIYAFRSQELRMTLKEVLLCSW

Chain of mouse melanocortin-3 receptor (mouse) (P33033 whole entry): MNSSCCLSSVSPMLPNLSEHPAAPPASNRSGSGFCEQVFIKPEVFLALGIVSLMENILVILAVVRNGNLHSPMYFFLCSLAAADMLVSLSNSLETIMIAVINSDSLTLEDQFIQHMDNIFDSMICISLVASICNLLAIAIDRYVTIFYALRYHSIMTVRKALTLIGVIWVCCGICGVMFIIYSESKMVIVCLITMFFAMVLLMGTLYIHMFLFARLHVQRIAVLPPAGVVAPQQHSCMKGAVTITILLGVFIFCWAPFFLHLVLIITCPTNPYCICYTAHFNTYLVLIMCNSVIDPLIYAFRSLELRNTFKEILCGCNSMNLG
Chain of mMC3R (P33033 whole entry): as above
Chain of mMC1R (Q01727 whole entry): as the sequence (Q01727 whole entry) above
Chain of mMC4R (P56450 whole entry): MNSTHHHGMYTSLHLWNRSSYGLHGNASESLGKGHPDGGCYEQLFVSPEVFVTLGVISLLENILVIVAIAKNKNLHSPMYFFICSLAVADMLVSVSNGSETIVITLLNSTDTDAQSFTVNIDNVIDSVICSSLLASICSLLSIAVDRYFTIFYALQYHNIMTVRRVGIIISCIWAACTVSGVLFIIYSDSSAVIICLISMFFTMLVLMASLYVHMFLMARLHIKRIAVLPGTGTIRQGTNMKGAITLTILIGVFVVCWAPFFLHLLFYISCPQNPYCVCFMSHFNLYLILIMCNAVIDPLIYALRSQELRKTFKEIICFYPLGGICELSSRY
Chain of mouse melanocortin-4 receptor (mouse) (P56450 whole entry): as above
T1 sequence (P41149 whole entry): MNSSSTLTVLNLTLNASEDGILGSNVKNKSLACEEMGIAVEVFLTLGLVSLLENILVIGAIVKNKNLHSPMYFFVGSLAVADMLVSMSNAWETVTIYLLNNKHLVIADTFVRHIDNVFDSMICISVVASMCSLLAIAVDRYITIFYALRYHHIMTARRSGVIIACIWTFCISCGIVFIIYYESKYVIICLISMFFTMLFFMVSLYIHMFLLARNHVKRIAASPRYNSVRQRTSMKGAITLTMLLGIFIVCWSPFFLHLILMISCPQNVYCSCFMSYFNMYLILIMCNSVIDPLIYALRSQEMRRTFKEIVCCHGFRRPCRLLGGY

Molecule	agonist EC50 (cAMP AlphaScreen, HEK293 cells stably expressing the receptor) [3] [µM]	agonist EC50 (cAMP AlphaScreen, HEK293 cells stably expressing the receptor) [4] [µM]	agonist EC50 (cAMP AlphaScreen, HEK293 cells stably expressing the receptor) [5] [µM]	further results
C[C@@H]1NC(=O)[C@H](CO)NC(=O)[C@H](Cc2ccccc2)NC(=O)[C@H](Cc2ccccc2)NC(=O)[C@H](CCCNC(=N)N)NC(=O)[C@@H]2CCCN2C(=O)[C@H]2CCCN2C(=O)[C@H](Cc2ccccc2)NC1=O [Peptide 5, c[Pro-Arg-Phe-Phe-Ser-Ala-Phe-DPro]]				agonist activity at the MC4R (in words) (mMC4R): No agonist activity; agonist activity at the MC1R (in words) (mMC1R): No agonist activity; EC50 (mMC5R [1]): 0.14 µM; agonist activity at the MC3R (in words) (mMC3R): No agonist activity
C[C@@H]1NC(=O)[C@@H](CN)NC(=O)[C@H](Cc2ccccc2)NC(=O)[C@H](Cc2ccccc2)NC(=O)[C@H](CCCNC(=N)N)NC(=O)[C@@H]2CCCN2C(=O)[C@H]2CCCN2C(=O)[C@H](Cc2ccccc2)NC1=O [Peptide 9, c[Pro-Arg-Phe-Phe-DDap-Ala-Phe-DPro]]				agonist activity at the MC4R (in words) (mMC4R): no agonist activity; agonist activity at the MC1R (in words) (mMC1R): no agonist activity; EC50 (mMC5R [1]): 0.11 µM; agonist activity at the MC3R (in words) (mMC3R): no agonist activity
C[C@@H]1NC(=O)[C@H](Cc2ccccc2)NC(=O)[C@H](Cc2ccccc2)NC(=O)[C@H](Cc2ccccc2)NC(=O)[C@H](CCCNC(=N)N)NC(=O)[C@@H]2CCCN2C(=O)[C@H]2CCCN2C(=O)[C@H](Cc2ccccc2)NC1=O [Peptide 14, c[Pro-Arg-Phe-Phe-Phe-Ala-Phe-DPro]]				activity at the MC5R (in words) (mMC5R [2]): no activity
C[C@@H]1NC(=O)[C@H](Cc2c[nH]c3ccccc23)NC(=O)[C@H](Cc2ccccc2)NC(=O)[C@H](Cc2ccccc2)NC(=O)[C@H](CCCNC(=N)N)NC(=O)[C@@H]2CCCN2C(=O)[C@H]2CCCN2C(=O)[C@H](Cc2ccccc2)NC1=O [Peptide 15, c[Pro-Arg-Phe-Phe-Trp-Ala-Phe-DPro]] (cyclo(RFFWAF[dP]P))				EC50 (mMC5R [1]): 0.15 µM
N=C(N)NCCC[C@@H]1NC(=O)[C@@H]2CCCN2C(=O)[C@H]2CCCN2C(=O)[C@H](Cc2ccccc2)NC(=O)[C@H](CCCCN)NC(=O)[C@H](CC(N)=O)NC(=O)[C@H](Cc2ccccc2)NC(=O)[C@H](Cc2ccccc2)NC1=O [Peptide 18, c[Pro-Arg-Phe-Phe-Asn-Lys-Phe-DPro]]				activity at the MC5R (in words) (mMC5R [2]): partially stimulated
N=C(N)NCCC[C@@H]1NC(=O)[C@@H]2CCCN2C(=O)[C@H]2CCCN2C(=O)[C@H](Cc2ccccc2)NC(=O)[C@H](Cc2ccccc2)NC(=O)[C@H](CC(N)=O)NC(=O)[C@H](Cc2ccccc2)NC(=O)[C@H](Cc2ccccc2)NC1=O [Peptide 20, c[Pro-Arg-Phe-Phe-Asn-Phe-Phe-DPro]]				activity at the MC5R (in words) (mMC5R [2]): partially stimulated
N=C(N)NCCC[C@@H]1NC(=O)[C@@H]2CCCN2C(=O)[C@H]2CCCN2C(=O)[C@H](Cc2ccccc2)NC(=O)[C@H](CO)NC(=O)[C@H](CC(N)=O)NC(=O)[C@H](Cc2ccccc2)NC(=O)[C@H](Cc2ccccc2)NC1=O [Peptide 21, c[Pro-Arg-Phe-Phe-Asn-Ser-Phe-DPro]] (cyclo(RFFNSF[dP]P))				agonist activity at the MC4R (in words) (mMC4R): did not possess agonist activity; agonist activity at the MC1R (in words) (mMC1R): did not possess agonist activity; agonist activity at the MC3R (in words) (mMC3R): did not possess agonist activity
C[C@@H]1NC(=O)[C@H](CC(N)=O)NC(=O)[C@H](Cc2ccccc2)NC(=O)[C@H](Cc2ccccc2)NC(=O)[C@H](CCCNC(=N)N)NC(=O)[C@@H]2CCCN2C(=O)[C@H]2CCCN2C(=O)[C@H](C)NC1=O [Peptide 24, c[Pro-Arg-Phe-Phe-Asn-Ala-Ala-DPro]] (cyclo(RFFNAA[dP]P))				agonist activity at the MC1R (in words) (mMC1R): no agonist activity
c[Pro-Arg-Phe-Phe-Abu-Ala-Phe-DPro] (peptide)	> 100	> 100	> 100	
cyclo(PRFFNDF[dP]) (SMILES N=C(N)NCCC[C@@H]1NC(=O)[C@@H]2CCCN2C(=O)[C@H]2CCCN2C(=O)[C@H](Cc2ccccc2)NC(=O)[C@H](CC(=O)O)NC(=O)[C@H](CC(N)=O)NC(=O)[C@H](Cc2ccccc2)NC(=O)[C@H](Cc2ccccc2)NC1=O) [c[Pro-Arg-Phe-Phe-Asn-Asp-Phe-DPro]]	> 100	> 100		
cyclo(PRFFNAA[dP]) (SMILES C[C@@H]1NC(=O)[C@H](CC(N)=O)NC(=O)[C@H](Cc2ccccc2)NC(=O)[C@H](Cc2ccccc2)NC(=O)[C@H](CCCNC(=N)N)NC(=O)[C@@H]2CCCN2C(=O)[C@H]2CCCN2C(=O)[C@H](C)NC1=O) [c[Pro-Arg-Phe-Phe-Asn-Ala-Ala-DPro]]	> 100	> 100	> 100	
cyclo(PRFFAAF[dP]) [c[Pro-Arg-Phe-Phe-Ala-Ala-Phe-DPro]]	> 100	> 100	> 100	

Now from value to molecule, other results behind:

agonist EC50 (cAMP AlphaScreen, HEK293 cells stably expressing the receptor) [3] [µM]	agonist EC50 (cAMP AlphaScreen, HEK293 cells stably expressing the receptor) [4] [µM]	agonist EC50 (cAMP AlphaScreen, HEK293 cells stably expressing the receptor) [5] [µM]	Molecule	further results
> 100	> 100	> 100	c[Pro-Arg-Phe-Phe-DDap-Ala-Phe-DPro] (peptide)	
> 100	> 100		c[Pro-Arg-Phe-Phe-Dap-Ala-Phe-DPro] (peptide)	
> 100	> 100	> 100	cyclo(PRFFLAF[dP]) (SMILES CC(C)C[C@@H]1NC(=O)[C@H](Cc2ccccc2)NC(=O)[C@H](Cc2ccccc2)NC(=O)[C@H](CCCNC(=N)N)NC(=O)[C@@H]2CCCN2C(=O)[C@H]2CCCN2C(=O)[C@H](Cc2ccccc2)NC(=O)[C@H](C)NC1=O) [c[Pro-Arg-Phe-Phe-Leu-Ala-Phe-DPro]]	
> 100	> 100	> 100	cyclo(PRFFTAF[dP]) (SMILES C[C@@H]1NC(=O)[C@H]([C@@H](C)O)NC(=O)[C@H](Cc2ccccc2)NC(=O)[C@H](Cc2ccccc2)NC(=O)[C@H](CCCNC(=N)N)NC(=O)[C@@H]2CCCN2C(=O)[C@H]2CCCN2C(=O)[C@H](Cc2ccccc2)NC1=O) [c[Pro-Arg-Phe-Phe-Thr-Ala-Phe-DPro]]	
> 100	> 100	20.5	cyclo(PRFFEAF[dP]) [c[Pro-Arg-Phe-Phe-Glu-Ala-Phe-DPro]]	
> 100	> 100	> 100	cyclo(PRFFDAF[dP]) [c[Pro-Arg-Phe-Phe-Asp-Ala-Phe-DPro]]	
> 100	> 100	> 100	cyclo(PRFFNSF[dP]) (SMILES N=C(N)NCCC[C@@H]1NC(=O)[C@@H]2CCCN2C(=O)[C@H]2CCCN2C(=O)[C@H](Cc2ccccc2)NC(=O)[C@H](CO)NC(=O)[C@H](CC(N)=O)NC(=O)[C@H](Cc2ccccc2)NC(=O)[C@H](Cc2ccccc2)NC1=O) [c[Pro-Arg-Phe-Phe-Asn-Ser-Phe-DPro]]	
	> 100		cyclo(PRFFNKF[dP]) (SMILES N=C(N)NCCC[C@@H]1NC(=O)[C@@H]2CCCN2C(=O)[C@H]2CCCN2C(=O)[C@H](Cc2ccccc2)NC(=O)[C@H](CCCCN)NC(=O)[C@H](CC(N)=O)NC(=O)[C@H](Cc2ccccc2)NC(=O)[C@H](Cc2ccccc2)NC1=O) [c[Pro-Arg-Phe-Phe-Asn-Lys-Phe-DPro]]	
> 100	> 100		cyclo(PRFFVAF[dP]) [c[Pro-Arg-Phe-Phe-Val-Ala-Phe-DPro]]	
> 100	> 100	> 100	cyclo(PRFFHAF[dP]) (SMILES C[C@@H]1NC(=O)[C@H](Cc2c[nH]cn2)NC(=O)[C@H](Cc2ccccc2)NC(=O)[C@H](Cc2ccccc2)NC(=O)[C@H](CCCNC(=N)N)NC(=O)[C@@H]2CCCN2C(=O)[C@H]2CCCN2C(=O)[C@H](Cc2ccccc2)NC1=O) [c[Pro-Arg-Phe-Phe-His-Ala-Phe-DPro]]	
> 100	> 100	> 100	cyclo(PRFFNGF[dP]) (SMILES N=C(N)NCCC[C@@H]1NC(=O)[C@@H]2CCCN2C(=O)[C@H]2CCCN2C(=O)[C@H](Cc2ccccc2)NC(=O)CNC(=O)[C@H](CC(N)=O)NC(=O)[C@H](Cc2ccccc2)NC(=O)[C@H](Cc2ccccc2)NC1=O) [c[Pro-Arg-Phe-Phe-Asn-Gly-Phe-DPro]]	
> 100	> 100	> 100	cyclo(PRFFSAF[dP]) [c[Pro-Arg-Phe-Phe-Ser-Ala-Phe-DPro]]	
